The domain aggregation screens of Martell et al. (2025)

Assay: soluble fraction after stress (log2 fold change); higher = more stays soluble; pooled small domains, quantitative proteomics
Conditions: stress: pH 4
How it was run: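 With high-throughput quantitative proteomics, pooled custom libraries of small protein domains were measured after pH 4 stress. Each domain's soluble amount after the stress gives a fold change taken as aggregation propensity. Higher log2 values mean more of the domain stayed soluble.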

| Sequence | soluble fraction (log2) |
| --- | --- |
| HMVNEALDEFFVGLKNLYESATGKPAIAGAHFDGEPKTDFEKLMYLGYQIIRPAQAYPSALKAYERAIARS | -1.15 |
| HMVNHEERKRLIAEATWRTISHVGIEQASVRTIAKEAGLSLGALRYYFTTQEELLRFSMQLVQERV | 0.0598 |
| HMVNIEAEVGRRLRQLRARRGLSLRALADLSGLNVNTLSLIENSKTSPSVSTLQQLARSLQVPITTFFESD | 0.142 |
| HMVNKQERTYTILRDRIHSGSFAPLERLNIDALARELGVSPIPVREALRRLEAEGWVRFTPNVGAVVSP | 0.308 |
| HMVNLLVTPLEELEINFRTLRALRKYNIYQLEDLLRFIKYNGFDALRIVPGMGIKSTEQLYEKLKDKNI | -1.06 |
| HMVNTVEVQGNTIYSAEEIRSASGIQKGDNLFTLNKEAAAGSIKASLPYVETVSIIRFLPDKIVIEVKE | -0.977 |
| HMVNVLKNSTVIDLVKNNLSDALIISLIRRAKVDFSLMTDDVIELSGKGVSPAVIMEMRQAMIRQASEIQN | -0.183 |
| HMVNVTEAIDLENGTGKLSGTFNHEPKSAEEIIFLLKIDTNKWKLSQYWNKQMGDHWRVSALISQI | -1.54 |
| HMVPAMEVALEDARRAIEQVVSGERTSVQLSSQEAMIRKLQHQMAKDANLFSRSSGVEPQRRVTIYTN | -0.478 |
| HMVPHQPRVWTNTAGKTITAAFVRFNAAGRKVSLKLEKGRQVELPLASLSGNDVDWIKEHVPEAMSNQE | -0.00313 |
| HMVPISGADFEKLSDYILQKAGAGSIQVKELLAGLKGMHEKNLWKAIDYLLAEEKIRIDKGGNISVK | -0.249 |
| HMVPQAVQDIKAYLASGALPYIGPATAKKIVAMFGSDALDVIAEHPEQLTAIRGLNEEKANAIHQEFRRQF | 0.0364 |
| HMVPSSHNIAQKVKQIKINDLWLDVRERYIYLKNLYLSHPLEKDHPSFIVYVEAVNQIYNQYF | 0.0743 |
| HMVQDDLRELEGISTELLAKLADAGITNRDDLADLAIDELVAITGQSEDDAKALIMKAREHWFAGDA | -1.09 |
| HMVQIIQLQGTDKRLYELVAPLVMNPEILKQNYNYPFRTSEDFVWFVAVDKKKVIGFIPVEEKKKEYVI | -0.275 |
| HMVRKGEINFDQLSVRARNALRNMNILFEKEILKLTEYDLKSIPNLGVKTTNELLSYIKRLQTNQKEE | -0.653 |
| HMVRRSERLHALTESLRRSGNRGRTAEQLATEFEVSVRTIKRDLVALEASGLPLWSRPGPGGGYGLLS | -0.0236 |
| HMVRTIKILGIKHNINLYYKNVKVPTMNVKNQTLEIILPNKYKKFQEEQILKVLTQKLYDKIAETEIEKIK | ≥ 0.43 |
| HMVSAEQNTLEFIKENVKEDVIEDDIEFYKSLLEDWSVEVDNSSKLLDPGNNNSLLAVIAYSIENEL | -0.414 |

| Sequence | soluble fraction (log2) |
| --- | --- |
| HMVSDAWITGKVKSQLLADDVTPGMKIDVDTEDRIVSLKGTVPSLTARNEAIRIASHTKGVRTVDADELIV | -0.0247 |
| HMVSFAEQASDWLAHFDRLGDVGPDTTLTDLTARDAEFSAWVNEGIHHRVAFLETLAAWHRTER | -0.0379 |
| HMVSGLEILKIQVQDHPSDWRWALLLARTHYENGNREAAVRTLRPLQRLHPDRLEVMTLWALLA | -0.222 |
| HMVSGSPTVDILMQRGLEYQQQENLEAARDAFDRAINLKPDYAEAWNRRAVLFFNEGKYDEAIADLETAIT | -0.0941 |
| HMVSKEELANSIYENKTADELGNIVLRKGKYSGEMLRTIYVKDIGYLEWHSKQSYEYSNAVKWYLKKLE | -0.846 |
| HMVSLEEIINDLTSRIQTAVKMRFSDFVQNRKERVGVIVSFLGMLELVKQGIIDIKQEGHFADIEMETA | -0.58 |
| HMVSLSENQKIVLESLNTAMSARELMEILNLSDISHFRRNILNPLLLEGLIVRTKPDKPKSSKQKYIKANF | -0.354 |
| HMVSPEVEMLRAAVETMSERQKQVYELHYLRGFNVKETAAILGMSSPTVTAHKKRIMEIIKKFFE | -0.88 |
| HMVSPFQQQIADKVHNEIIAAKFNYDNATNENERLLAQLQAKKARELANQYGLDMSSYGADTTAERS | 0.00762 |
| HMVSSAEQQARDKESGMILVQEAGGPDKARALVEKMRQDIRNPALDGTRRQMLRGHVARIELALAELETG | -0.0115 |
| HMVSVGDIFAGRIISNENGHLLLQLLDGSKISAQTVTDLKYNIGDVLNLEIIEEKQGLIFVRQT | -0.471 |
| HMVSVLGRRIKELRLQNSMTQMQLAKKLGYKGNSLVAGWELGKNYPSVSSIKRLSEIFDTDLMKYVG | 0.22 |
| HMVTDTGAIEKVIDEVIAANPKQVQEIADQRAAGHEKPKTLGWLVGQIMKASGGKVNPAAVNEILLKKLG | 0.00199 |
| HMVTFDEISQSLVRDVAARRSLSVQTLHAMVDRYNAGSSINAVANQYGIDRLKLREILIELGVHVAT | -0.44 |
| HMVTLQEVKQYLRIDFEEEDPLLLSLLATAKQQVMNVGRMDEAQLSEHEDTARTAILYAVSYLYENRN | -1.63 |
| HMVTPAQQARDTLLGALVGLARATTSEPKTDDTDVVLNAGLRLAAQPDAPEERLQRMLAIVQTEKHRV | 0.215 |
| HMVTVNAFGKSGPEPAAMTKEALAKGADEVRVIVDSPTAAASVRDFLIGAGLRVQLQDDEGQLIVVGEKK | 0.344 |
| HMVVDEQRIQTLVSAAEQNSSDPVPRVTLGNLYFDAEQFEEAVKWYEQALALDPRNVNVSTDLGVGYYY | -0.451 |
| HMVVKLTQEQDRFIKTFNDKSLAFYYISSWGWGSFLRNGIGGVYEGDKTPFTLDEKEKMLNAIINGYEVI | -1.36 |
